{"source": "paper PMC4434323", "key": {"[1]": {"target": "T1, daf-19 (F33H1.1) (Caenorhabditis elegans) (UniProt Q09555)", "T1 sequence": "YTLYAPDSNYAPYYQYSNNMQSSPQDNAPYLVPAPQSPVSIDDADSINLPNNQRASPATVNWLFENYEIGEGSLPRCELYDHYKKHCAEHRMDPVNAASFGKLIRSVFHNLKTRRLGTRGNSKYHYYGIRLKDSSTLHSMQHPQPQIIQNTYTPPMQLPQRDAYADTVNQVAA"}, "[2]": {"target": "T2, nhr-5 (Y73F8A.21) (Caenorhabditis elegans) (UniProt Q9NA51)", "T2 sequence": "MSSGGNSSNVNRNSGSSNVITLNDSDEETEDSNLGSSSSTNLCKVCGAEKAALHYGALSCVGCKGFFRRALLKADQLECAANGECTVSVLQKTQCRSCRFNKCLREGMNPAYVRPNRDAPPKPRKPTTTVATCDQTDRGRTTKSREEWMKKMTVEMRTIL"}, "[3]": {"target": "T3, elt-7 (C18G1.2) (Caenorhabditis elegans) (UniProt O61924)", "T3 sequence": "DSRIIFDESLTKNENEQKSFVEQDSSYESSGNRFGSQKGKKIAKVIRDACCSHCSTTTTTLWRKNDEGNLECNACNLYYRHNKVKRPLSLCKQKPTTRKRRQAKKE"}, "[4]": {"target": "T4, elt-6 (F52C12.5) (Caenorhabditis elegans) (UniProt G5EGN3)", "T4 sequence": "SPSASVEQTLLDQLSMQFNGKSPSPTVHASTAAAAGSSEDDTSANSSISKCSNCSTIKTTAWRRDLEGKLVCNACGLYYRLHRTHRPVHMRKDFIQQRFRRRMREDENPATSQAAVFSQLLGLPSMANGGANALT"}, "[5]": {"target": "egl-13 (T22B7.1) (Caenorhabditis elegans) (UniProt Q23045)", "sequence (Q23045 279-447)": "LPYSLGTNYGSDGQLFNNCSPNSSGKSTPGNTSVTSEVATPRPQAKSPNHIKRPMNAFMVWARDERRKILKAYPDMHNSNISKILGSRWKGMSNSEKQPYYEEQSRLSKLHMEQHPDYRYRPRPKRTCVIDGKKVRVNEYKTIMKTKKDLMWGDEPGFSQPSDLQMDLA"}, "[6]": {"target": "T5, daf-12 (F11A1.3) (Caenorhabditis elegans) (UniProt G5EFF5)", "T5 sequence": "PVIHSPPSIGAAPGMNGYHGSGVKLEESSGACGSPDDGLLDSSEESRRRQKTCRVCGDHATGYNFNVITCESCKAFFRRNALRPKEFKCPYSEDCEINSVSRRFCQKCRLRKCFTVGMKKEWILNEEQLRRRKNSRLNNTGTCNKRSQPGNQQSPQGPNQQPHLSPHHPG"}, "[7]": {"system": "T6, slr-2 (Y59A8B.13) (Caenorhabditis elegans)", "T6 sequence": "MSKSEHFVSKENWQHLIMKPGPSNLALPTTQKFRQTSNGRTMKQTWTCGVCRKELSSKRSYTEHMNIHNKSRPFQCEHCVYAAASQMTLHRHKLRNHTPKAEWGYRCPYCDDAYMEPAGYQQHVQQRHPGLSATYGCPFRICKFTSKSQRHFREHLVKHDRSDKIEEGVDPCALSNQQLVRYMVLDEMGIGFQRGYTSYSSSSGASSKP"}, "[8]": {"target": "T7, nhr-70 (Y51A2D.17) (Caenorhabditis elegans) (UniProt G5EEL3)", "T7 sequence": "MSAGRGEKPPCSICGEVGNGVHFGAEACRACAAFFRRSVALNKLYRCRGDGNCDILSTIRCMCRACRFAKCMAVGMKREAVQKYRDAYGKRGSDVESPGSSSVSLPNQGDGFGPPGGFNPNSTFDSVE"}, "[9]": {"target": "T8, nhr-66 (T09A12.4) (Caenorhabditis elegans) (UniProt H2KYJ8)", "T8 sequence": "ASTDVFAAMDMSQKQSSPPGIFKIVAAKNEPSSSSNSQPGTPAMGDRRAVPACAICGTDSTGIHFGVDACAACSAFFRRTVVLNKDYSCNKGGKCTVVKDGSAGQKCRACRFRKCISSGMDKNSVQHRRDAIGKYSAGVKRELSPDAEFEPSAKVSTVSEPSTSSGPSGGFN"}, "[10]": {"target": "T9, mnm-2 (C10A4.8) (Caenorhabditis elegans) (UniProt Q17895)", "T9 sequence": "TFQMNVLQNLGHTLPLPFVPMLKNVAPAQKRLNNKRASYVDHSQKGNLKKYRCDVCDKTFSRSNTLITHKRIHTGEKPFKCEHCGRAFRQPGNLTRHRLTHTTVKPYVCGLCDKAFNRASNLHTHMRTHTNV"}, "[11]": {"target": "T10, let-381 (F26B1.7) (Caenorhabditis elegans) (UniProt P91278)", "T10 sequence": "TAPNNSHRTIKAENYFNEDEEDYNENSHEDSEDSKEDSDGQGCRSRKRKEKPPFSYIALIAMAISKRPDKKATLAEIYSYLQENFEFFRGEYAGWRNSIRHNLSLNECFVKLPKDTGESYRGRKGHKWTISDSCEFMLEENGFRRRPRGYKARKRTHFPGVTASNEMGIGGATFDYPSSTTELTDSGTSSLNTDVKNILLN"}, "[12]": {"target": "T11, fkh-9 (K03C7.2) (Caenorhabditis elegans) (UniProt Q21187)", "T11 sequence": "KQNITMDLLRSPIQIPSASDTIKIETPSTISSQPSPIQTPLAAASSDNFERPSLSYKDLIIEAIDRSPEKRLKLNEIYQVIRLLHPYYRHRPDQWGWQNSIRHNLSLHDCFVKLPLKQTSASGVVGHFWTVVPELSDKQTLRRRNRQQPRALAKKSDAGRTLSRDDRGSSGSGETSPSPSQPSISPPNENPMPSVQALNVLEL"}}}
{"sequence": "TAGCAACA (double strand) [8-mer TAGCAACA]", "values": [{"measurement": "binding signal (PBM E-score (-0.5 to 0.5))", "setting": "[1]", "value": 0.474}]}
{"sequence": "AGAGTACA (double strand) [8-mer AGAGTACA]", "values": [{"measurement": "binding signal (PBM E-score (-0.5 to 0.5))", "setting": "[2]", "value": 0.48}]}
{"sequence": "CGTTATCA (double strand) [8-mer CGTTATCA]", "values": [{"measurement": "binding signal (PBM E-score (-0.5 to 0.5))", "setting": "[3]", "value": 0.478}, {"measurement": "binding signal (PBM E-score (-0.5 to 0.5))", "setting": "[4]", "value": 0.493}]}
{"sequence": "AACAATAC (double strand) [8-mer AACAATAC]", "values": [{"measurement": "binding signal (PBM E-score (-0.5 to 0.5))", "setting": "[5]", "value": 0.453}]}
{"sequence": "AGTGCACT (double strand) [8-mer AGTGCACT]", "values": [{"measurement": "binding signal (PBM E-score (-0.5 to 0.5))", "setting": "[2]", "value": 0.456}, {"measurement": "binding signal (PBM E-score (-0.5 to 0.5))", "setting": "[6]", "value": 0.497}]}
{"sequence": "GTTGCTAA (double strand) [8-mer GTTGCTAA]", "values": [{"measurement": "binding signal (PBM E-score (-0.5 to 0.5))", "setting": "[1]", "value": 0.487}]}
{"sequence": "ACAACAAT (double strand) [8-mer ACAACAAT]", "values": [{"measurement": "binding signal (PBM E-score (-0.5 to 0.5))", "setting": "[5]", "value": 0.455}]}
{"sequence": "CGTTGCTA (double strand) [8-mer CGTTGCTA]", "values": [{"measurement": "binding signal (PBM E-score (-0.5 to 0.5))", "setting": "[1]", "value": 0.489}]}
{"sequence": "TGATAACA (double strand) [8-mer TGATAACA]", "values": [{"measurement": "binding signal (PBM E-score (-0.5 to 0.5))", "setting": "[3]", "value": 0.458}, {"measurement": "binding signal (PBM E-score (-0.5 to 0.5))", "setting": "[4]", "value": 0.492}]}
{"sequence": "GAGTACAC (double strand) [8-mer GAGTACAC]", "values": [{"measurement": "binding signal (PBM E-score (-0.5 to 0.5))", "setting": "[2]", "value": 0.461}]}
{"sequence": "AACTACAA (double strand) [8-mer AACTACAA]", "values": [{"measurement": "binding signal (PBM E-score (-0.5 to 0.5))", "setting": "[7]", "value": 0.492}, {"measurement": "binding signal (PBM E-score (-0.5 to 0.5))", "setting": "[8]", "value": 0.487}, {"measurement": "binding signal (PBM E-score (-0.5 to 0.5))", "setting": "[9]", "value": 0.489}]}
{"sequence": "CTAGCAAC (double strand) [8-mer CTAGCAAC]", "values": [{"measurement": "binding signal (PBM E-score (-0.5 to 0.5))", "setting": "[1]", "value": 0.484}]}
{"sequence": "AAAGAACG (double strand) [8-mer AAAGAACG]", "values": [{"measurement": "binding signal (PBM E-score (-0.5 to 0.5))", "setting": "[2]", "value": 0.458}]}
{"sequence": "GATGCGCA (double strand) [8-mer GATGCGCA]", "values": [{"measurement": "binding signal (PBM E-score (-0.5 to 0.5))", "setting": "[10]", "value": 0.484}]}
{"sequence": "AGTACACT (double strand) [8-mer AGTACACT]", "values": [{"measurement": "binding signal (PBM E-score (-0.5 to 0.5))", "setting": "[2]", "value": 0.454}]}
{"sequence": "AAAGTTCA (double strand) [8-mer AAAGTTCA]", "values": [{"measurement": "binding signal (PBM E-score (-0.5 to 0.5))", "setting": "[2]", "value": 0.46}]}
{"sequence": "ATAACAAT (double strand) [8-mer ATAACAAT]", "values": [{"measurement": "binding signal (PBM E-score (-0.5 to 0.5))", "setting": "[5]", "value": 0.471}]}
{"sequence": "GTTTATAA (double strand) [8-mer GTTTATAA]", "values": [{"measurement": "binding signal (PBM E-score (-0.5 to 0.5))", "setting": "[11]", "value": 0.459}]}
{"sequence": "AAGTGCAC (double strand) [8-mer AAGTGCAC]", "values": [{"measurement": "binding signal (PBM E-score (-0.5 to 0.5))", "setting": "[2]", "value": 0.453}, {"measurement": "binding signal (PBM E-score (-0.5 to 0.5))", "setting": "[6]", "value": 0.498}]}
{"sequence": "ATAAACAA (double strand) [8-mer ATAAACAA]", "values": [{"measurement": "binding signal (PBM E-score (-0.5 to 0.5))", "setting": "[11]", "value": 0.489}, {"measurement": "binding signal (PBM E-score (-0.5 to 0.5))", "setting": "[12]", "value": 0.485}]}
{"sequence": "GAACAATA (double strand) [8-mer GAACAATA]", "values": [{"measurement": "binding signal (PBM E-score (-0.5 to 0.5))", "setting": "[5]", "value": 0.478}]}
{"sequence": "GTAGCAAC (double strand) [8-mer GTAGCAAC]", "values": [{"measurement": "binding signal (PBM E-score (-0.5 to 0.5))", "setting": "[1]", "value": 0.46}]}
{"sequence": "GCCGTTCC (double strand) [8-mer GCCGTTCC]", "values": [{"measurement": "binding signal (PBM E-score (-0.5 to 0.5))", "setting": "[10]", "value": 0.469}]}
{"sequence": "GCGCATCC (double strand) [8-mer GCGCATCC]", "values": [{"measurement": "binding signal (PBM E-score (-0.5 to 0.5))", "setting": "[10]", "value": 0.487}]}
{"sequence": "ATGGCAAC (double strand) [8-mer ATGGCAAC]", "values": [{"measurement": "binding signal (PBM E-score (-0.5 to 0.5))", "setting": "[1]", "value": 0.468}]}
{"sequence": "AAAGTACA (double strand) [8-mer AAAGTACA]", "values": [{"measurement": "binding signal (PBM E-score (-0.5 to 0.5))", "setting": "[2]", "value": 0.482}, {"measurement": "binding signal (PBM E-score (-0.5 to 0.5))", "setting": "[6]", "value": 0.497}]}
{"sequence": "GCGTATCC (double strand) [8-mer GCGTATCC]", "values": [{"measurement": "binding signal (PBM E-score (-0.5 to 0.5))", "setting": "[10]", "value": 0.454}]}
